How the values were obtained:
[1] = target: SARS-CoV-2 spike trimer (S trimer), soluble ectodomain (SARS-CoV-2) (UniProt P0DTC2); assay: cryo-EM structure
[2] = target: SARS-CoV-2 spike trimer (S trimer), soluble ectodomain (SARS-CoV-2, Wuhan-Hu-1 type); assay: cryo-EM structure

| Substance | stoichiometry N (Fab per trimer) [1] | stoichiometry N (Fab per trimer) [2] |
| --- | --- | --- |
| 2-43 Fab | 3 | – |
| 4-8 Fab | – | 3 |

Source: doi:10.1101/2020.06.17.153486
